In publication PMC3438196:
Positions count from the first letter of the chain named. Names and notes keep the numbering of the source.

B1: Apobec3G-GFP MAPPIT bait (pCEL-Apobec3G-GFP), Q9HC16 Y59N (protein)
chain: MKPHFRNTVERMYRDTFSYNFYNRPILSRRNTVWLCYEVKTKGPSRPPLDAKIFRGQVNSELKYHPEMRFFHWFSKWRKLHRDQEYEVTWYISWSPCTKCTRDMATFLAEDPKVTLTIFVARLYYFWDPDYQEALRSLCQKRDGPRATMKIMNYDEFQHCWSKFVYSQRELFEPWNNLPKYYILLHIMLGEILRHSMDPPTFTFNFNNEPWVRGRHETYLCYEVERMHNDTWVLLNQRRGFLCNQAPHKHGFLEGRHAELCFLDVIPFWKLDLDQDYRVTCFTSWSPCFSCAQEMAKFISKNKHVSLCIFTARIYDDQGRCQEGLRTLAEAGAKISIMTYSEFKHCWDTFVDHQGCPFQPWDGLDEHSQDLSGRLRAILQNQEN
B2: Apobec3G-GFP MAPPIT bait (pCEL-Apobec3G-GFP), Q9HC16 R136S (protein)
chain: B1 chain with N59Y, R136S
B3: Apobec3G-GFP MAPPIT bait (pCEL-Apobec3G-GFP), Q9HC16 R122C (protein)
chain: B1 chain with N59Y, R122C
B4: Apobec3G-GFP MAPPIT bait (pCEL-Apobec3G-GFP), Q9HC16 L27R (protein)
chain: B1 chain with L27R, N59Y
B5: Apobec3G-GFP MAPPIT bait (pCEL-Apobec3G-GFP), Q9HC16 Y222N (protein)
chain: B1 chain with N59Y, Y222N
B6: Apobec3G-GFP MAPPIT bait (pCEL-Apobec3G-GFP), Q9HC16 R30L (protein)
chain: B1 chain with R30L, N59Y
B7: Apobec3G-GFP MAPPIT bait (pCEL-Apobec3G-GFP), Q9HC16 R102G (protein)
chain: B1 chain with N59Y, R102G
B8: Apobec3G-GFP MAPPIT bait (pCEL-Apobec3G-GFP), Q9HC16 R238C (protein)
chain: B1 chain with N59Y, R238C
B9: Apobec3G-GFP MAPPIT bait (pCEL-Apobec3G-GFP), Q9HC16 W175R (protein)
chain: B1 chain with N59Y, W175R
B10: Apobec3G-GFP MAPPIT bait (pCEL-Apobec3G-GFP), Q9HC16 K270E (protein)
chain: B1 chain with N59Y, K270E
B11: Apobec3G-GFP MAPPIT bait (pCEL-Apobec3G-GFP), Q9HC16 W127R (protein)
chain: B1 chain with N59Y, W127R
B12: Apobec3G-GFP MAPPIT bait (pCEL-Apobec3G-GFP), Q9HC16 W94R (protein)
chain: B1 chain with N59Y, W94R
B13: Apobec3G-GFP MAPPIT bait (pCEL-Apobec3G-GFP), Q9HC16 V265M (protein)
chain: B1 chain with N59Y, V265M
B14: Apobec3G-GFP MAPPIT bait (pCEL-Apobec3G-GFP), Q9HC16 F157I (protein)
chain: B1 chain with N59Y, F157I
B15: Apobec3G-GFP MAPPIT bait (pCEL-Apobec3G-GFP), Q9HC16 D130Y (protein)
chain: B1 chain with N59Y, D130Y
B16: Apobec3G-GFP MAPPIT bait (pCEL-Apobec3G-GFP), Q9HC16 R24G (protein)
chain: B1 chain with R24G, N59Y
B17: Apobec3G-GFP MAPPIT bait (pCEL-Apobec3G-GFP), Q9HC16 E191V (protein)
chain: B1 chain with N59Y, E191V
B18: Apobec3G-GFP MAPPIT bait (pCEL-Apobec3G-GFP), Q9HC16 H81L (protein)
chain: B1 chain with N59Y, H81L
B19: Apobec3G-GFP MAPPIT bait (pCEL-Apobec3G-GFP), Q9HC16 K79M (protein)
chain: B1 chain with N59Y, K79M
B20: Apobec3G-GFP MAPPIT bait (pCEL-Apobec3G-GFP), Q9HC16 R78W (protein)
chain: B1 chain with N59Y, R78W

What follows are binders tested against T1, codon optimized Vif SLQ144-146AAA MAPPIT prey (pMG2-VifoptSLQ), P12504 (assay: MAPPIT). Conditions: chain shown with the change.
With B1 the percent of parent was 18 % of WT.
For B2, the percent of parent was 53 % of WT.
With B3 the percent of parent was 16 % of WT.
B4 was tested, and the percent of parent was 26 % of WT.
With B5 the percent of parent was 12 % of WT.
B6 was tested, and the percent of parent was 21 % of WT.
In the case of B7, the percent of parent is reported as 44 % of WT.
In the case of B8, the percent of parent is reported as 55 % of WT.
With B9 the percent of parent was 20 % of WT.
With B10 the percent of parent was 58 % of WT.
For B11, the percent of parent was 16 % of WT.
In the case of B12, the percent of parent is reported as 27 % of WT.
B13 was tested, and the percent of parent was 92 % of WT.
For B14, the percent of parent was 39 % of WT.
For B15, the percent of parent was 43 % of WT.
In the case of B16, the percent of parent is reported as 32 % of WT.
In the case of B17, the percent of parent is reported as 41 % of WT.

Target: T1, codon optimized Vif SLQ144-146AAA …
Assay: MAPPIT
Conditions: chain shown with the change
Remark: another data set of the same source
B6 was tested, and the percent of parent was 21 % of WT.
In the case of B7, the percent of parent is reported as 44 % of WT.
With B18 the percent of parent was 53 % of WT.
With B19 the percent of parent was 56 % of WT.
For B20, the percent of parent was 16 % of WT.
